Like-named read-outs stand apart in the source and are kept apart here.

The target of data set [1] is Hfq (HfqEc) (Escherichia coli) (UniProt P0A6X3). The data set can be described thus: EMSA. For orientation: In EMSA bound probe runs differently from free probe, usually more slowly.
Data set [2] shares this target. The data set can be described thus: SHAPE footprinting.
For data set [3], the system named is HfqCp (Clostridium perfringens). Briefly: EMSA. To be noted: 50 mM Tris-HCl pH 7.5, 100 mM KCl, 10 mM MgCl2, room temperature; […].

Chain of Hfq (HfqEc) (Escherichia coli) (P0A6X3 whole entry): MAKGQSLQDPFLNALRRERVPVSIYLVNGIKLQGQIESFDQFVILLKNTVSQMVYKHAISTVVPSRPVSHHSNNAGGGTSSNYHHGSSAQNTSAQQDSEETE

In the case of “GGUUCUGGCCGGCUAACCCGGUCACAUGGGAUGAGGAGAUAACAUAAUCUCCCUCCCACAAGCAGUAACUAUAAAAAUAACCCCACUCUCUACAAGGCUCGGGGCGCCCGAAAAAACGGGCAUACAGGUUGACCGACAACGAUAUAAAUCGGAAUCAAAAACUAUGUGUGGAAUUGUUGGCGCGAAUAUUAAGCUUGCUCGG [glmS mRNA -161 to +21]”, the Kd (commonly the constant that tells how readily two partners part at equilibrium) in data set [1] was found to be 30 nM.

Consider “GGCCUUCGGGCCAAUUCUGGCCGGCUAACCCGGUCACAUGGGAUGAGGAGAUAACAUAAUCUCCCUCCCACAAGCAGUAACUAUAAAAAUAACCCCACUCUCUACAAGGCUCGGGGCGCCCGAAAAAACGGGCAUACAGGUUGACCGACAACGAUAUAAAUCGGAAUCAAAAACUAUGUGUGGAAUUGUUGGCGCGUCGAUCCGGUUCGCCGGAUCCAAAUCGGGCUUCGGUCCGGUUCAAUAUUGGAUCCGCUCGG [glmS mRNA SHAPE construct]”, for which, in data set [2], the binding result is on record as “binds”.

With GlmY, in data set [1], the Kd was 4.3 nM.

With glmS mRNA -161 to +21, in data set [1], the Kd turned out to be 30 nM.

As for GlmZ, the Kd in data set [1] (50 mM Tris-HCl pH 7.5, 100 mM KCl, 10 mM MgCl2, room temperature, […]) worked out at 4.5 nM; in data set [3], 12 nM.

(Values after publication PMC3439879.)
